Measured values from patent US20200317744A1 (published 2020).
Changes are numbered by the printed parent chain. Each block holds one molecule with its values, some of them ahead of it.

What was measured:
[1] = target: murine IL-2 receptor βγc heterodimer (mIL-2Rβγc) (mouse) (UniProt P16297); assay: SPR; mIL-2Rγ immobilised, saturating mIL-2Rβ in solution
[2] = target: murine IL-2Rβ (mIL-2Rβ) (mouse) (UniProt P16297); assay: SPR; mIL-2Rβ immobilised
[3] = target: human IL-2Rβγc on YT-1 human natural killer cells (human) (UniProt P14784); assay: cell-based or functional assay
[4] = target: human IL-2 receptor βγc heterodimer (hIL-2Rβγc) (human) (UniProt P14784); assay: SPR; hIL-2Rγ immobilised, saturating hIL-2Rβ in solution
[5] = target: human IL-2Rβ (hIL-2Rβ) (human) (UniProt P14784); assay: SPR; hIL-2Rβ immobilised
[6] = target: IL-2Rβγc (species not stated); assay: biolayer interferometry
[7] = target: murine IL-2 receptor βγc heterodimer (mIL-2Rβγc) (mouse) (UniProt P16297); assay: biolayer interferometry; biotin-mIL2Gamma on streptavidin sensor, MSA-Neo2 titrated 729 to 1 nM with saturating mIL2Beta
[8] = target: T1, IL-4 receptor αγc heterodimer (IL-4Rαγc) (human, UniProt P24394 26-232; P31785 23-254, limits assumed, biotinylated at the C-terminal biotin acceptor peptide (BirA)); assay: biolayer interferometry; γc on sensor, IL-4Rα in solution
T1 construct: also called γc when IL-4Rα is present in solution
T1 sequence 1: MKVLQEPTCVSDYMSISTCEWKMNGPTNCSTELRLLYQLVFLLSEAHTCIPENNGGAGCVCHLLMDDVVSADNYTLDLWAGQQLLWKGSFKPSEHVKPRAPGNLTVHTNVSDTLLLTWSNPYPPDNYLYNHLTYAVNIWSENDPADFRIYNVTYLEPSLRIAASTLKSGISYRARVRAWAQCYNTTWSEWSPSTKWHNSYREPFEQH
T1 sequence 2: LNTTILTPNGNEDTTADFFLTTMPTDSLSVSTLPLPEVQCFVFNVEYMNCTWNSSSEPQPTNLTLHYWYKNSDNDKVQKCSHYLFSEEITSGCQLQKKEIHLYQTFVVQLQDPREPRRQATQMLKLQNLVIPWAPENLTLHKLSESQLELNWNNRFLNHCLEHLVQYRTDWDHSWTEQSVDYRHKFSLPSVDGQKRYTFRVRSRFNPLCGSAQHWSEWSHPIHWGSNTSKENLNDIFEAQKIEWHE
Description: Less than 100 response units (RU) of each ligand was immobilized to minimize mass transfer effects. […] Surface regeneration for all interactions was conducted using 15 s exposure to 1 M MgCl2 in 10 mM sodium acetate pH 5.5. SPR experiments were carried out in HBS-P+ buffer (GE Healthcare) supplemented with 0.2% bovine serum albumin (BSA) at 25° C. and all binding studies were performed at a flow rate of […] to prevent analyte rebinding. Data was visualized and processed using the Biacore T100 evaluation software version 2.0 (GE Healthcare). Equilibrium titration curve fitting and equilibrium binding dissociation (KD) value determination was implemented using GraphPad Prism assuming all binding interactions to be first order. Biolayer interferometry: binding data were collected in a Octet RED96 (ForteBio, Menlo Park, Calif.) and processed using the instrument's integrated software using a 1:1 binding model. […] Analyte proteins were diluted from concentrated stocks into binding buffer.

human IL-4Rα = target: T2, human IL-4Rα (human, UniProt P24394 26-232, limits assumed, biotinylated); assay: biolayer interferometry
T2 construct: also called IL-4Rα receptor
T2 sequence (looked up): T1 sequence 1

Chain of IL-2Rβγc (species not stated) (P14784 whole entry, chain 1 of 2): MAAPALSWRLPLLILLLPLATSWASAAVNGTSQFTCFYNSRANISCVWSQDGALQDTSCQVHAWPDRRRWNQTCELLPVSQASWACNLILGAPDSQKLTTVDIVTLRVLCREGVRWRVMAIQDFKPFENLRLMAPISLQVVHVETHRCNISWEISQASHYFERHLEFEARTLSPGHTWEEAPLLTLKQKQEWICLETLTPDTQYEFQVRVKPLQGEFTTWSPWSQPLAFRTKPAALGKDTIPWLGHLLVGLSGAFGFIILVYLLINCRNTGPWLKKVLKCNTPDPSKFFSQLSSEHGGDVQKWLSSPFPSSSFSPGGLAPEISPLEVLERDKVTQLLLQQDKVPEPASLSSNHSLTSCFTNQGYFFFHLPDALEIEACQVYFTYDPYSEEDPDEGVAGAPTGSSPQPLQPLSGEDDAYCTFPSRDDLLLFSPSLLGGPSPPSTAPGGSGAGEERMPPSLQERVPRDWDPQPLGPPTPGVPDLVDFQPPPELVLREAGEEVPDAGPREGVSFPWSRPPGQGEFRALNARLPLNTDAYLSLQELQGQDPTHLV
Chain of IL-2Rβγc (species not stated) (P31785 whole entry, chain 2 of 2, further chain): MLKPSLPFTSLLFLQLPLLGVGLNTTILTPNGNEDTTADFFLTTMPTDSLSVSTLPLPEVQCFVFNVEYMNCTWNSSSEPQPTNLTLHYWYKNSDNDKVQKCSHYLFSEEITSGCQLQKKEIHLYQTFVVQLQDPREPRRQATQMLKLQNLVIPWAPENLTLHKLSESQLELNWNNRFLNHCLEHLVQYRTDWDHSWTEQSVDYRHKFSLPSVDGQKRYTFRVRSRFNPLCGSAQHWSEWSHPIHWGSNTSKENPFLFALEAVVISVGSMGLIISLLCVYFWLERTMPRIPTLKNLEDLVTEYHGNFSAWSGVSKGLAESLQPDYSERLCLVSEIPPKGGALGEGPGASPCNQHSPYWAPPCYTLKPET
Chain of human IL-2 receptor βγc heterodimer (hIL-2Rβγc) (human) (P14784 27-240, one chain of several): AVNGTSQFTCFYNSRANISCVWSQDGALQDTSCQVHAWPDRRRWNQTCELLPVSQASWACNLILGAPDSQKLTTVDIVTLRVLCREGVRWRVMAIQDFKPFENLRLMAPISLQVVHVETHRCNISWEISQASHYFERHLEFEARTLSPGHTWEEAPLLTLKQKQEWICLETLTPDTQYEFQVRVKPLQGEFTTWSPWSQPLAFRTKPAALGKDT
Chain of human IL-2Rβ (hIL-2Rβ) (human) (P14784 other isoform, or with tags, fused parts or gaps): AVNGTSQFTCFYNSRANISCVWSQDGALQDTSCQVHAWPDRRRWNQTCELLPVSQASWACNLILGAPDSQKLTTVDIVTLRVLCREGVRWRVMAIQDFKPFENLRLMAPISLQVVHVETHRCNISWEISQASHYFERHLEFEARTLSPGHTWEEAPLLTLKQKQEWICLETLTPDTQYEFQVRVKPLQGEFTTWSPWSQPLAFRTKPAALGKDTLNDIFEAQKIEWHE
Chain of human IL-2Rβγc on YT-1 human natural killer cells (human) (P14784 27-551): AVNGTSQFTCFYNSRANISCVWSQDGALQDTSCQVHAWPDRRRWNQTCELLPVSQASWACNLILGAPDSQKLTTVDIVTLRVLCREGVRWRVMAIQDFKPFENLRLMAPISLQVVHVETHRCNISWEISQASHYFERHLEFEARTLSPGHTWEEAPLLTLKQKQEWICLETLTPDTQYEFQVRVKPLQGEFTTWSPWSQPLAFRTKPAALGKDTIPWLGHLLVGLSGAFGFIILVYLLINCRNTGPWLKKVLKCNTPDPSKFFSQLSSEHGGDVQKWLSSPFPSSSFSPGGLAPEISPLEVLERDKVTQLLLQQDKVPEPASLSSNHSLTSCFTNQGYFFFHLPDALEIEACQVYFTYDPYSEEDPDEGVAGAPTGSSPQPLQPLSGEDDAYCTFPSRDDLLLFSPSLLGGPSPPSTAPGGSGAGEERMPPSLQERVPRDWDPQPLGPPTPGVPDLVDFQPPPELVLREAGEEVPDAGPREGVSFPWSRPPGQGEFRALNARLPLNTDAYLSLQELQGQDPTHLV

Kd [1]: 312 nM
Kd [2]: 214 nM
Kd [4]: 301 nM
Kd [5]: 2 nM
Molecule: Super-2/Superkine (PDB:3QAZ) (ligand)
EC50 (CD25-) pSTAT5, human NK (YT, CD25-) cells [3]: 70 pM

Kd [1]: 492 nM
Kd [2]: 8110 nM
Molecule: human IL-2 (hIL-2) (from UniProt P60568 21-153) (ligand)

Kd [1]: 38.4 nM
Kd [2]: 16.1 nM
Molecule: Neoleukin-2/15 (i.e. G2_neo2_40_1F_seq36_S11) (designed binder)

Kd [6]: 1.8 nM
B1: Neoleukin-2/15 terminal disulfide-stapled variant (CNSN and NFQC added at the termini) (designed binder)
chain: CNSNKKKIQLHAEHALYDALMILNIVKTNSPPAEEKLEDYAFNFELILEEIARLFESGDQKDEAEKAKRMKEWMKRIKTTASEDEQEEMANAIITILQSWIFNFQC
modifications: disulfide bond between the added N-terminal and C-terminal cysteines

Kd [1]: 126 nM
Kd [2]: 1500 nM
B2: mouse IL-2 (mIL-2) (ligand, UniProt P04351 21-169, looked up)
chain: APTSSSTSSSTAEAQQQQQQQQQQQQHLEQLLMDLQELLSRMENYRNLKLPRMLTFKFYLPKQATELKDLQCLEDELGPLRHVLDLTQSKSFQLEDAENFISNIRVTVVKLKGSDNTFECQFDDESATVVDFLRRWIAFCQSIISTSPQ

Kd [6]: 1.3 nM
B3: Neoleukin-2/15 internal disulfide-stapled variant (disulfide between residues 38 and 75) (designed binder)
chain: PKKKIQLHAEHALYDALMILNIVKTNSPPAEEKLEDYCFNFELILEEIARLFESGDQKDEAEKAKRMKEWMKRICTTASEDEQEEMANAIITILQSWIFS
modifications: disulfide bond between residues 38 and 75

Kd [1]: 13.6 nM
B4: G2_neo2_40_1F_seq27 (designed binder)
chain: TKKKAQLLAEHALLDALMLLNLSSESNERLNRIITWLQSIIFTGTYDPDMVKEAVKLADEIEDEMRKRGIDTEDYVSNLRVILQELA

Kd [7]: 33.5 nM
B5: Mouse Serum Albumin (MSA) fusion to Neoleukin-2/15 (protein)
chain: GSDGGSHHHHHHGSGSENLYFQGSGEAHKSEIAHRYNDLGEQHFKGLVLIAFSQYLQKCSYDEHAKLVQEVTDFAKTCVADESAANCDKSLHTLFGDKLCAIPNLRENYGELADCCTKQEPERNECFLQHKDDNPSLPPFERPEAEAMCTSFKENPTTFMGHYLHEVARRHPYFYAPELLYYAEQYNEILTQCCAEADKESCLTPKLDGVKEKALVSSVRQRMKCSSMQKFGERAFKAWAVARLSQTFPNADFAEITKLATDLTKVNKECCHGDLLECADDRAELAKYMCENQATISSKLQTCCDKPLLKKAHCLSEVEHDTMPADLPAIAADFVEDQEVCKNYAEAKDVFLGTFLYEYSRRHPDYSVSLLLRLAKKYEATLEKCCAEANPPACYGTVLAEFQPLVEEPKNLVKTNCDLYEKLGEYGFQNAILVRYTQKAPQVSTPTLVEAARNLGRVGTKCCTLPEDQRLPCVEDYLSAILNRVCLLHEKTPVSEHVTKCCSGSLVERRPCFSALTVDETYVPKEFKAETFTFHSDICTLPEKEKQIKKQTALAELVKHKPKATAEQLKTVMDDFAQFLDTCCKAADKDTCFSTEGPNLVTRCKDALAGGGSGGSGGGSGGSGSGPKKKIQLHAEHALYDALMILNIVKTNSPPAEEKLEDYAFNFELILEEIARLFESGDQKDEAEKAKRMKEWMKRIKTTASEDEQEEMANAIITILQSWIFS

Kd [1]: 80 nM
B6: G2_neo2_40_1F_seq04 (designed binder)
chain: TTKKIQLLVEHALLDALMILNLSSESNEKLNRIITTLQSWIFRGEIDPDRARELAKLLEEIREEMRKRGIDTEDYVSNMIVIIRELA

Kd [1]: 925 nM
B7: G2_neo2_40_1F_seq30 (designed binder)
chain: PEKKRQLLLEHILLDALMLLNLLETNPQNTESKFEDYISNAEVIAEELAKLMESLGLSDEAEKFKKIKQWLREVWRIWSSTNWSTLEDKARELLNRIITTIQSQIFY

Kd [1]: 39.1 nM
B8: G2_neo2_40_1F_seq12 (designed binder)
chain: TEKKLQLLVEHALLDALMILNLWSESNEKLNRIITTMQSWIFTGRIDPDKAEELAKLVEELREEARERGIDTEDYVSNLKVILKELS

Kd [1]: 69.2 nM
B9: G2_neo2_40_1F_seq40 (designed binder)
chain: PEKKRQLLAEHALLDALMILNIIRTNSDNTESKLEDYISNLKVILEEIARLMESLGLSDEAEKAKEAMRLADKAGSTASEEEKKEAMNRVITWAQSWIFN

Kd [1]: 7.9 nM
Kd [2]: 486 nM
B10: G1_neo2_40_1F (designed binder)
chain: STKKTQLLAEHALLDALMMLNLLPEPNEKLNRIITTMQSWIFTGKIDGDGAQELAKEVEELEQEHEKRGIDVEDYASNLKVILLELA

Kd [1]: 964 nM
Kd [2]: 68300 nM
B11: G1_neo2_40_1F_H2 (designed binder)
chain: B10 chain with A9L, M18H, L20R, N21R, L22N, N31S, I70R, Y75D

Kd [1]: 392 nM
Kd [2]: 10100 nM
B12: G1_neo2_40_1F_H4 (designed binder)
chain: B10 chain with A9L, M18H, L20S, N21R, L22E, T36D, E53D, I70G

Kd [1]: 2650 nM
Kd [2]: 6800 nM
B13: G1_neo2_40_1F_H1 (designed binder)
chain: B10 chain with A9I, M18D, L20S, N21R, L22N, N31S, E53Q, I70E, Y75E

Kd [1]: 5120 nM
Kd [2]: 45300 nM
B14: G1_neo2_40_1F_H5 (designed binder)
chain: B10 chain with A9I, M18H, L20S, N21R, L22K, N31S, E53H, I70G, D71E, Y75E

Kd [1]: 3830 nM
B15: G1_neo2_40_1F_H3 (designed binder)
chain: B10 chain with A9I, M18N, L20R, N21K, L22K, N31S, T36D, E53Q, I70G

Kd [1]: 71.5 nM
B16: G2_neo2_40_1F_seq16 (designed binder)
chain: TKKKIQLLVEHALLDALMILNLSSKSNEKLNRIITTMQSWIFNGTIDPDRARELAKLVEEIRDEMEKNGIDTEDYVSNLKVILEELA

Kd [1]: 38.2 nM
B17: G2_neo2_40_1F_seq29 (designed binder)
chain: EDYYSNLKVILEELAREMERNGLSDKAEEWRQWKKIVERIRQIRSNNSDLNEAKELLNRLITYIQSQIFEISERIRETDQEKKEESWKKWQLLLEHALLDVLMLLND

Kd [1]: 4.3 nM
Kd [2]: 214 nM
B18: G1_neo2_40_1F_M1 (designed binder)
chain: STEKTQLAAEHALRDALMLKHLLNEPNEKLARIITTMQSWQFTGKIDGDGAQELAKEVEELQQEHEVRGIDVEDYASNLKVILLHLA

Kd [1]: 64.8 nM
Kd [2]: 402 nM
B19: G1_neo2_40_1F_M3 (designed binder)
chain: B18 chain with L7H, H11D, K20R, H21N, G44E, H85Q

Kd [1]: 886 nM
Kd [2]: 2600 nM
B20: G1_neo2_40_1F_M2 (designed binder)
chain: B18 chain with E3K, K4N, H11D, R14L, K20R, H21N, G44E, V67E, H85Q

binding result [8]: binds
binding result (human IL-4Rα): binds
B21: Neoleukin-4 (i.e. IL4_G2_neo2_40_1F_seq36_S11_MIF) (designed binder)
chain: PKKKIQIMAEEALKDALSILNIVKTNSPPAEEQLERFAKRFERNLWGIARLFESGDQKDEAEKAKRMIEWMKRIKTTASEDEQEEMANAIITILQSWFFS
notes: also called Neo-4

Kd [1]: 568 nM
Kd [2]: 2430 nM
B22: G2_neo2_40_1F_seq36 (designed binder)
chain: PKKKIQLLAEHALLDALMILNIVKTNSQNAEEKLEDYASNVEVILEEIARLMESGDQKDEAEKAKRMKEWMKRIKTTASEDEQEEMANRIITLLQSWIFS

Kd [1]: 27.8 nM
B23: G2_neo2_40_1F_seq26 (designed binder)
chain: TKKKYQLLIEHALLDALMILNLWSESNEKLNRIITTMQSWIFTGTYDPDKAEELEKLAKEIEDEARERGIDTEDYMSNLRVILKELS
